Experimental data published in paper PMC3558595 (Integrative biology : quantitative biosciences from nano to …, 2013).

Molecular target: the molecule itself
Assay: FRET or BRET

B1: Wzm, transmembrane protein of the A-band polysaccharide ABC transporter of Pseudomonas aeruginosa, fused to GFP2 or YFP (natural protein, Pseudomonas aeruginosa PAO1, UniProt Q9HTB8 1-265, looked up)
chain: MLLGLSRSLWGYRGFVLGSVKREFQSRYRGSLFGALWTVLNPLSMIVVYTVIFSQVMRARLPGVDDGLAYSVYLCAGLLTWGLFAEITSRSQSMFIENANLLKKISFPRICLPVIVLLNAGVNFAIILALFLGFLALSGRLPGAALLALVPLLAIQVLFAAGLGMILGVLNVFFRDVGQLFGICLQFWFWLTPIVYPIGILPEGIRSLIELNPMTALMRSYQQLFLHGQWPDWPSLLPITLLALLLCALGLRLFRQRVGEMVDEL
stoichiometry N: 4
